Measurements reported in PMC7910268.

What was measured:
purified protein [1] = substrate: NC(=O)c1ccc[n+]([C@@H]2O[C@H](COP(=O)(O)OP(=O)(O)OC[C@H]3O[C@@H](n4cnc5c(N)ncnc54)[C@H](O)[C@@H]3O)[C@@H](O)[C@H]2O)c1; assay: purified protein; type: biochemical, Sphingopyxis fribergensis; conditions: phenylacetaldehyde 0.5 mmol L^-1, pH 7.7, aldehyde made from styrene oxide by SOI-1CP, varied: cofactor
purified protein [2] = substrate: O=CCc1ccccc1; assay: purified protein; type: biochemical, Sphingopyxis fribergensis; conditions: NAD+ 2.5 mmol L^-1, pH 7.7, aldehyde made from styrene oxide by SOI-1CP

B1: FeaB-Kp5.2 (Sphingopyxis fribergensis) (protein)
chain: MATAQSYVTPLSAVSTFIGHDHGLFIDGDWRAAKGTERLDVFDPSTGEPIASVANASPDDVDHAVRAAHKAFESGVWSGIAPAERERLLLKFADLVEANAEELAQIETLNQGKSINISRFVDVGGAPAYMRYVAGLTTKITGETFDVSIGAIPGARFTASTRREPIGVVGAIAPWNFPMMIGLWKIMPALAAGCTVVLKPSEVTPLTSLRLASLAKEAGLPAGVLNVITGDGKAGKALVDHPLVAKITFTGSTATGKAIARSASDRLLRTSLELGGKNPAIFLADAPIEQAVQGAILGGFFNNGQVCAASSRLYIARAIYDPFIKALAHAVDGMTMGPGLDTAAQINPVVSLQHRAKILDHIARARQDGAQIVAGGESPDRAGYYVRPTVVVGAGAQLAISRQEVFGPLVTVTPFDDEDEAINLANDTEMGLTASLWTNDLKKTMDLVPRIKAGTVWVNCHNLIDPNMPFGGYKESGIGRDFGIHSLDGYSEVKSVCIAH
- Km (purified protein [1]): 500 ± 300 µM
- Vmax (purified protein [1]): 17.8 µmol/min/mg
- kcat (purified protein [1]): 62.5 s⁻¹
- Km (purified protein [2]): 22 ± 5 µM
- Vmax (purified protein [2]): 14.8 µmol/min/mg
- kcat (purified protein [2]): 52 s⁻¹
